Experimental data: patent US8173131B2, “Compositions and methods for modulating RSV infection and immunity” (PerkinElmer Health Sciences, Inc., priority 2000, dated 2012)

Experiments:
[1] = target: T1, CX3CR1 (293-CX3CR1 cells) (Homo sapiens, UniProt P49238); assay: G glycoprotein and Fkn binding to 293-CX3CR1 cells by flow cytometry; settings: for binding to 293-CX3CR1 cells: wheat germ lectin column fraction (G, F glycoprotein) or purified recombinant polyhistidine-tagged G glycoprotein
T1 construct: expressed in transfected cells
T1 sequence (P49238 1-355): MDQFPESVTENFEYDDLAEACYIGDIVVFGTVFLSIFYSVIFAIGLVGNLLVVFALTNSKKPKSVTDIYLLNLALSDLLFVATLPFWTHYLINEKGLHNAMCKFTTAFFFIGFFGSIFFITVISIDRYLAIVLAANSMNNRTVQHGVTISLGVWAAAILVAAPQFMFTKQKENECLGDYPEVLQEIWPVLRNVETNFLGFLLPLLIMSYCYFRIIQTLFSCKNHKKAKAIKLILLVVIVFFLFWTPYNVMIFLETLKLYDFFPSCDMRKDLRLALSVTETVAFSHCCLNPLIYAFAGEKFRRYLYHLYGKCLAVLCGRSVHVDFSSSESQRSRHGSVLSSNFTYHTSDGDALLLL
Protocol: (§1) Purified G glycoprotein was examined for binding to 293-CX3CR1 cells^33. A pcDNA 3.1 plasmid containing the CX3CR1 gene and a neomycin resistance gene was used to stably transfect human embryonic kidney (HEK) cells. Neomycin resistance was used for selection and maintenance of plasmid transfection of human embryonic kidney cells.
All binding studies were done on ice and either G glycoprotein or human Fkn (R&D Diagnostics, Minneapolis, […]) containing 1% bovine serum albumin (Sigma) and incubated with the 293-CX3CR1 cells or 293 control cells for 30 min at 4° C. […] For inhibition studies, 100 pM-1 μM human Fkn or G glycoprotein was preincubated with the cells for 30 min at 4° C. Without washing, 100 pM of either Fkn or G glycoprotein was added and incubated for 30 min at 4° C. The cells were washed, blocked with FcγRIII blocking antibody (HB197) for 30 min on ice, washed and stained as appropriate with either an anti-G glycoprotein monoclonal antibody cocktail (132-5B, 132-5G, 130-2G, 232-IF) or a biotinylated anti-G glycoprotein monoclonal antibody cocktail (130-2G, 131-2G) or anti-Fkn monoclonal antibody (51637.11; R&D Diagnostics). Concentrations of 1 μg of anti-G glycoprotein monoclonal antibody (131-2G)^34, rabbit anti-CX3CR1 sera^33, and anti-CX3CR1 monoclonal antibody containing 10 μg/ml heparin were used in all experiments. […] Staining was detected with absorbed FITC-goat anti-mouse (H & L chain) monoclonal antibody (PharMingen, San Diego, Calif.) or streptavidin-PE (PharMingen) using flow cytometry (FACScan, Becton-Dickinson, Mountain View, Calif.). A 76 amino acid ^125I-Fkn polypeptide comprising the […] (NEN, Boston, Mass.) was used in radioligand studies^33. As a control, the void volume following purified G glycoprotein passaged over an anti-G glycoprotein antibody (130-2G) affinity column was examined by flow cytometry for binding to either 293 or 293-CX3CR1 cells.
(§2) The receptor for Fkn, CX3CR1, was previously identified and characterized using anti-CX3CR1 rabbit antiserum and CX3CR1-transfected human embryonic kidney cells (293-CX3CR1 cells)^33.
The percent Fkn-maximum binding was calculated using the equation: [% G (or Fkn) 293-CX3CR1]-[% G (or Fkn) 293]/[% Fkn (10 nM) 293-CX3CR1]-[% Fkn (10 nM) 293], where G=G glycoprotein, Fkn=fractalkine, 293-CX3CR1=CX3CR1-transfected 293, 293=untransfected 293. The concentration of G glycoprotein was estimated using a molecular weight of 90 kD.

293 cells = assay: G glycoprotein and Fkn binding to untransfected 293 control cells by flow cytometry; design: species or system human; settings: for binding to 293 cells: wheat germ lectin column fraction (G, F glycoprotein) or purified recombinant polyhistidine-tagged G glycoprotein
Protocol: as §1
All binding studies were done on ice and either G glycoprotein or human Fkn (R&D Diagnostics, Minneapolis, Minn.) were diluted between 1 nM-100 nM in PBS (GIBCO) containing 1% bovine serum albumin (Sigma) and incubated with the 293-CX3CR1 cells or 293 control cells for 30 min at 4° C. […] For inhibition studies, 100 pM-1 μM human Fkn or G glycoprotein was preincubated with the cells for 30 min at 4° C. Without washing, 100 pM of either Fkn or G glycoprotein was added and incubated for 30 min at 4° C. The cells were washed, blocked with FcγRIII blocking antibody (HB197) for 30 min on ice, washed and stained as appropriate with either an anti-G glycoprotein monoclonal antibody cocktail (132-5B, 132-5G, 130-2G, 232-IF) or a biotinylated anti-G glycoprotein monoclonal antibody cocktail (130-2G, 131-2G) or anti-Fkn monoclonal antibody (51637.11; R&D Diagnostics). Concentrations of 1 μg of anti-G glycoprotein monoclonal antibody (131-2G)^34, rabbit anti-CX3CR1 sera^33, and anti-CX3CR1 monoclonal antibody containing 10 μg/ml heparin were used in all experiments. […] Staining was detected with absorbed FITC-goat anti-mouse (H & L chain) monoclonal antibody (PharMingen, San Diego, Calif.) or streptavidin-PE (PharMingen) using flow cytometry (FACScan, Becton-Dickinson, Mountain View, Calif.). A 76 amino acid ^125I-Fkn polypeptide comprising the […] (NEN, Boston, Mass.) was used in radioligand studies^33. As a control, the void volume following purified G glycoprotein passaged over an anti-G glycoprotein antibody (130-2G) affinity column was examined by flow cytometry for binding to either 293 or 293-CX3CR1 cells.
as §2

[2] = target: T2, Fkn binding to 293-CX3CR1 cells (Homo sapiens, UniProt P49238); settings: heparin 5 μg/ml alone
T2 construct: host or cells: HEK 293 cells stably transfected with CX3CR1

[3] = test system: G glycoprotein binding to 293-CX3CR1 cells; design: species or system human; settings: heparin 5 μg/ml alone
Protocol: All binding studies were done on ice and either G glycoprotein or human Fkn (R&D Diagnostics, Minneapolis, Minn.) were diluted between 1 nM-100 nM in PBS (GIBCO) containing 1% bovine serum albumin (Sigma) and incubated with the 293-CX3CR1 cells or 293 control cells for 30 min at 4° C. […] Without washing, 100 pM of either Fkn or G glycoprotein was added and incubated for 30 min at 4° C. The cells were washed, blocked with FcγRIII blocking antibody (HB197) for 30 min on ice, washed and stained as appropriate with either an anti-G glycoprotein monoclonal antibody cocktail (132-5B, 132-5G, 130-2G, 232-IF) or a biotinylated anti-G glycoprotein monoclonal antibody cocktail (130-2G, 131-2G) or anti-Fkn monoclonal antibody (51637.11; R&D Diagnostics). Concentrations of 1 μg of anti-G glycoprotein monoclonal antibody (131-2G)^34, rabbit anti-CX3CR1 sera^33, and anti-CX3CR1 monoclonal antibody containing 10 μg/ml heparin were used in all experiments. […] Staining was detected with absorbed FITC-goat anti-mouse (H & L chain) monoclonal antibody (PharMingen, San Diego, Calif.) or streptavidin-PE (PharMingen) using flow cytometry (FACScan, Becton-Dickinson, Mountain View, Calif.). A 76 amino acid ^125I-Fkn polypeptide comprising the […] (NEN, Boston, Mass.) was used in radioligand studies^33. As a control, the void volume following purified G glycoprotein passaged over an anti-G glycoprotein antibody (130-2G) affinity column was examined by flow cytometry for binding to either 293 or 293-CX3CR1 cells.
For peptide inhibition studies, a series of G glycoprotein peptides were identified in the amino acid sequence of the A2 strain of RSV (GENBANK, attachment protein locus 1912305, Table 4). The peptides were synthesized using a simultaneous, multiple solid-phase peptide synthesis method on a peptide synthesizer (Perkin-Elmer Applied Biosystems, Berkeley, Calif.), and tested for homogeneity by reverse-phase liquid chromatography and capillary electrophoresis (www.biotech.cdc.gov/protein/methods). Inhibition assays were performed as described for the binding studies above.
To determine if G glycoprotein bound 293-CX3CR1 cells via CX3CR1, the ability of four reagents (anti-CX3CR1 rabbit antiserum, anti-CX3CR1 monoclonal antibody (2A9-1), Fkn and a 76 amino acid 125-I-Fkn polypeptide containing the CX3C domain) that bind to CX3CR1 to block G glycoprotein binding to 293-CX3CR1 cells was examined. In addition, to determine if binding of G glycoprotein to 293-CX3CR1 cells was dependent upon the CX3C motif, G glycoprotein peptides with a single residue insertion (Δ+1) or deletion (Δ−1) in the CX3C motif and also peptides that lacked or included the CX3C motif (Table 4) were generated. This panel of peptides was analyzed for their ability to block G glycoprotein or Fkn binding to 293-CX3CR1 cells.
Inhibition of Fkn and G glycoprotein binding to 293-CX3CR1 cells by treatment with monoclonal antibodies to G glycoprotein or CX3CR1, or treatment with G glycoprotein, Fkn, or G glycoprotein peptides in the presence or absence of heparin as described in Methods. […] The concentration of G glycoprotein was estimated using a molecular weight of 90 kD.

RSV [4] = assay: RSV plaque reduction assay on Vero cells (Example 1); type: cell-based, RSV/A2; settings: 5 μg/ml
Protocol: Dilutions of Fkn (R&D systems), SDF-1 α (R&D systems), G glycoprotein, heparin (Sigma), G glycoprotein peptides and anti-CX3CR1 antibody were made in serum-free Dulbecco's Modified Eagle's Media (DMEM; GIBCO) containing 1% BSA (Sigma) and preincubated with the Vero cells for 1 h at 37° C. 50 μg of anti-CX3CR1 antibody or heat-inactivated (56° C., 30 min) normal rabbit sera (control) were used in all experiments. […] Dilutions of RSV were made in serum-free DMEM (GIBCO) and added to pretreated Vero cells for 2 h at 37° C. Following virus infection, DMEM (GIBCO) containing 10% FBS (Hyclone, Logan, Utah) was added to the wells. Plaques were enumerated using immunostaining for F and G glycoproteins using biotinylated monoclonal antibodies 131-2A (anti-F glycoprotein) and 130-2G (anti-G glycoprotein) as described^45.
RSV plaque reduction following treatment with G glycoprotein, Fkn, G glycoprotein peptides, anti-CX3CR1 antibody, SDF-1-α and/or heparin as described in Methods. Percent inhibition was determined from the mean plaque forming units (pfu) of treated Vero cells over saline-treated Vero cells using a dilution of RSV that would produce 40-80 pfu. p-values were determined using unpaired two-tailed analysis where p<0.05 is significant. The concentration of G glycoprotein was estimated using a molecular weight of 90 kD.

RSV [5] = assay: RSV plaque reduction by small molecule peptide inhibitors on Vero cells (Example II); type: cell-based, RSV/A2; settings: heparin alone, 5 μg/ml
Protocol: Vero cells were treated with PBS, RT33, RT34, Δ+1, Δ−1 and EYp1 peptides (100 μm) in the presence (B) or absence of heparin (A) (5 μg/ml). Percentage inhibition was determined by dividing the mean plaque forming units (PFU) of treated Vero cells by the mean PFU of PBS-treated Vero cells.
Different concentrations of the G glycoprotein peptides and/or 5 μg/ml heparin (Sigma) were diluted in Dulbecco's phosphate buffered saline (D-PBS; GIBCO) and added to Vero cell monolayers for 1 h at 37° C. Pre-treated Vero cells were infected with 10^6 PFU of RSV/A2 diluted in serum-free DMEM (GIBCO) for 2 h at 37° C., after which DMEM (GIBCO) containing 10% FBS (Hyclone, Logan, Utah) was added, and the infected cells incubated at 37° C. for 3-4 days. Plaques were enumerated by immunostaining with monoclonal antibodies against the G and F glycoproteins (130-2G and 131-2A, respectively), as described (54,55).

[6] = 10 nM ligand, representative experiment, FIG. 1

Row | Molecule | binding to 293-CX3CR1 cells [1] | binding to 293 cells (293 cells) | Range of Inhibition (%) of Fkn binding [2] | Range of Inhibition (%) of G glycoprotein binding [3] | plaque inhibition (%) (RSV [4]) | inhibition of plaque formation (RSV [5]) [%] | percent positive staining of CX3CR1-293 cells [1, 6] [%] | percent positive staining of 293 cells (293 cells; [6]) [%]
1 | F glycoprotein: RSV F (fusion) glycoprotein in wheat germ lectin column fraction | 12% | 8% | – | – | – | – | – | –
2 | Heparin [reference compound] | – | – | 57-65% | 78-84% | 66 | 80 | – | –
3 | GHIS: purified recombinant soluble polyhistidine-tagged G glycoprotein from transfected Vero cells (protein, left off: small tags and cut ends, purified recombinant soluble polyhistidine-tagged G glycoprotein from transfected Vero cells) NHKVTPTTAIIQDATSQIKNTTPTYLTQNPQLGISPSNPSEITSQITTILASTTPGVKSTLQSTTVKTKNTTTTQTQPSKPTTKQRQNKPPSKPNNDFHFEVFNFVPCSICSNNPTCWAICKRIPNKKPGKKTTTKPTKKPTLKTTKKDPKPQTTKSKEVPTTKPTEEPTINTTKTNIITTLLTSNTTGNPELTSQMETFHSTSSEGNPSPSQVSTTSEYPSQPSSPPNTPRQ | 68-88% | 7-12% | – | – | – | – | 68 | 12
